B1: BBSome complex member BBS5 (Homo sapiens), Q8N3I7 (parent)
chain: MSVLDALWEDRDVRFDLSAQQMKTRPGEVLIDCLDSIEDTKGNNGDRGRLLVTNLRILWHSLALSRVNVSVGYNCILNITTRTANSKLRGQTEALYILTKCNSTRFEFIFTNLVPGSPRLFTSVMAVHRAYETSKMYRDFKLRSALIQNKQLRLLPQEHVYDKINGVWNLSSDQGNLGTFFITNVRIVWHANMNDSFNVSIPYLQIRSIKIRDSKFGLALVIESSQQSGGYVLGFKIDPVEKLQESVKEINSLHKVYSASPIFGVDYEMEEKPQPLEALTVEQIQDDVEIDSDGHTDAFVAYFADGNKQQDREPVFSEELGLAIEKLKDGFTLQGLWEVMS
partner: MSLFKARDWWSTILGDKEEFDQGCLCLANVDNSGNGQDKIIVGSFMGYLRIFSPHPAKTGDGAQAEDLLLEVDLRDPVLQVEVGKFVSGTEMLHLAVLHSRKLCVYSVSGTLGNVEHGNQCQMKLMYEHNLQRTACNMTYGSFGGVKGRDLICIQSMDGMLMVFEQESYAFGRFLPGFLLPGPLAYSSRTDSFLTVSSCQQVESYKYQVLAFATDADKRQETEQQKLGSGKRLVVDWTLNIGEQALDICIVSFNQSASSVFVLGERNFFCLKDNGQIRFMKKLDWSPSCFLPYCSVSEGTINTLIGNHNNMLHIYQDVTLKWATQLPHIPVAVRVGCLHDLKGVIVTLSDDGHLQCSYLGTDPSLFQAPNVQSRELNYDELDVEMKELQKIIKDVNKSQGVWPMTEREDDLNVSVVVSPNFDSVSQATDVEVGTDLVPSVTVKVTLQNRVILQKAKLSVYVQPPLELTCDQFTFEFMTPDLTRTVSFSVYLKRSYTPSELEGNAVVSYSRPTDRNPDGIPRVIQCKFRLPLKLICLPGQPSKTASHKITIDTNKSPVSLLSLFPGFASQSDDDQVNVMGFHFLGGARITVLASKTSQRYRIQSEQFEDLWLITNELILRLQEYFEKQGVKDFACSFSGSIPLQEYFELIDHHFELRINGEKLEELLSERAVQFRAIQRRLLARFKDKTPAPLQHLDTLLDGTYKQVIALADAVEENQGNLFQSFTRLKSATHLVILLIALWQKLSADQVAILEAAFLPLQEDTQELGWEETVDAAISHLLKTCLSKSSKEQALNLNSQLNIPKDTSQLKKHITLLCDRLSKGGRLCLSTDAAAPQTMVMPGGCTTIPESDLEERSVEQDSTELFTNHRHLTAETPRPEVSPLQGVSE

Variants of: B1
Conditions: with pthb1_human BBS9, Q3SYG4

| effect of a mutation on the interaction | Variant |
| --- | --- |
| with no effect | I79E |
| with no effect | I79K |
| with no effect | L88E |
| with no effect | L88A |
| with no effect | L88K |
| with no effect | S61E |
| with no effect | S86K |
| with no effect | S86A |
| with no effect | C75E |
| with no effect | N85E |
| with no effect | N85K |
| with no effect | I76A |
| with no effect | L62A |
| with no effect | V71A |
| with no effect | V71K |
| with no effect | R66E |
| with no effect | R66A |
| with no effect | V69E |

| effect of a mutation on the interaction | Variant |
| --- | --- |
| with no effect | V69A |
| with no effect | G72A |
| with no effect | N68E |
| with no effect | S65E |
| with no effect | L64E |
| disrupting interaction strength | T80I |
| with no effect | T83E |
| disrupting interaction strength | T83A |
| with no effect | R82A |
| with no effect | R82K |
| with no effect | L77A |
| with no effect | V67E |
| with no effect | G90K |
| with no effect | T81E |
| with no effect | Y73E |
| with no effect | Y73A |
| with no effect | A63K |

Second part, the variant before the results:

| Variant | effect of a mutation on the interaction |
| --- | --- |
| I79A | with no effect |
| S61F | disrupting interaction strength |
| S61K | with no effect |
| S70E | with no effect |
| S70A | with no effect |
| S70K | with no effect |
| N78A | with no effect |
| N78K | with no effect |
| N78E | with no effect |
| S86E | with no effect |
| A84K | with no effect |
| A84E | with no effect |
| R89K | with no effect |
| R89E | with no effect |
| R89A | with no effect |
| C75A | with no effect |
| C75K | with no effect |
| N85A | with no effect |
| I76T | disrupting interaction strength |
| I76E | disrupting interaction strength |
| I76K | with no effect |
| L62E | with no effect |
| L62K | with no effect |
| V71E | with no effect |
| N74K | with no effect |
| N74E | with no effect |
| N74A | with no effect |
| R66K | with no effect |

| Variant | effect of a mutation on the interaction |
| --- | --- |
| K87A | with no effect |
| K87E | with no effect |
| V69K | with no effect |
| G72E | with no effect |
| G72K | with no effect |
| G72S | disrupting interaction strength |
| N68K | with no effect |
| N68A | disrupting interaction strength |
| S65K | with no effect |
| S65A | with no effect |
| L64A | with no effect |
| L64K | with no effect |
| T80A | disrupting interaction strength |
| T80K | with no effect |
| T80E | with no effect |
| T83K | with no effect |
| R82E | with no effect |
| L77E | with no effect |
| L77K | with no effect |
| V67K | with no effect |
| V67A | with no effect |
| G90A | with no effect |
| G90E | with no effect |
| T81K | with no effect |
| T81A | with no effect |
| Y73K | with no effect |
| A63E | with no effect |
